Measured values reported in patent US20030144208A1 (ZymoGenetics, published 2003).

Target: T1, BSA V (Sigma Co.) (bovine, UniProt P02769 25-607)
T1 construct: Negative control of the ELISA; also called BSA control; bovine serum albumin
Test: ELISA on plated matrix protein, anti-FITC/biotin, streptavidin/HRP, chemiluminescence on film
Description: An ELISA (Enzyme-linked Immunosorbant Assay) was used to measure binding of zsig37 to various matrix proteins and complement C1q. The matrix proteins used were Bovine Collagen Type I (Becton Dickinson, Lincoln Park, N.J.) laminin, vitronectin, fibronectin, human collagen Types II, III, IV, V, VI (Chemicon International, Temecula, Calif.). BSA V (Sigma Co.) was used as a negative control. Just prior to use, the proteins were diluted in 2×PBS (Phosphate Buffered Saline, Sigma Co.) to 100 μg/ml and adjusted to pH 7.2 with 0.1 N NaOH. Each protein sample was quadruplicate plated (100 μl/well) into a 96 well plate. The plate was allowed to dry overnight in a laminar flow hood and washed 3 times with 400 μl of 5 mg/ml BSA in 1×PBS and blotted dry. Zsig37 was FITC labeled according to manufacturer's instruction (Pierce, Rockford, Ill.). Into each well was added 100 μl of 1.8 μg/ml zsig37-FITC in 5% BSA, PBS. The plates were incubated for 1.5 hours at room temperature then washed 3 time with 5% BSA, PBS. To each well was then added 100 μl of 1:400 mouse anti-FITC/Biotin (Sigma Co.). The plate was incubated 1.5 hours at room temperature and washed 3 times with 5% BSA, PBS. The plate was then incubated with 100 μl of 1:1000 streptavidin/HRP (Amersham, Piscataway, N.J.) for 1 hour and washed 3 times with 5% BSA, PBS. […]

T1 sequence (P02769 25-607 limits assumed): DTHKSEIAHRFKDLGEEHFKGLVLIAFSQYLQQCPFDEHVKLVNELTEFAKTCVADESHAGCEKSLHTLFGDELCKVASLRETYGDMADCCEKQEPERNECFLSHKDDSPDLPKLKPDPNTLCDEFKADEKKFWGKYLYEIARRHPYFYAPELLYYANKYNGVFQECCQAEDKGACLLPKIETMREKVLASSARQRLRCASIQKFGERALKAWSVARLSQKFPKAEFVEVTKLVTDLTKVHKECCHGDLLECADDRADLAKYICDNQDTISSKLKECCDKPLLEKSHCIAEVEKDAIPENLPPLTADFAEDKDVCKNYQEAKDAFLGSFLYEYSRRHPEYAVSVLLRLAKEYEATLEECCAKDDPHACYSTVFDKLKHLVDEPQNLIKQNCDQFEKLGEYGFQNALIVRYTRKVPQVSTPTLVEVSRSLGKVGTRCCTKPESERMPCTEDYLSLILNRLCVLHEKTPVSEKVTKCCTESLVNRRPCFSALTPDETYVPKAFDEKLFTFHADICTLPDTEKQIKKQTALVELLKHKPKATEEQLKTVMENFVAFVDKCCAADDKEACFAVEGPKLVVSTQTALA

B1: zsig37-FITC (ligand)
chain: LVLSRVPHVQGEQQEWEGTEELPSPPDHAERAEEQHEKYRPSQDQGLPASRCLRCCDPGTSMYPATAVPQINITILKGEKGDRGDRGLQGKYGKTGSAGARGHTGPKGQKGSMGAPGERCKSHYAAFSVGRKKPMHSNHYYQTVIFDTEFVNLYDHFNMFTGKFYCYVPGLYFFSLNVHTWNQKETYLHIMKNEEEVVILFAQVGDRSIMQSQSLMLELREQDQVWVRLYKGERENAIFSEELDTYITFSGYLVKHATEP
modifications: FITC label (sites not given)
notes: 22-281 is used here; also called FITC labeled zsig37; FITC tagged Zsig37 protein
binding result: no binding (tested: 1.8 µg/ml zsig37-FITC)
